Here are results for 2 molecules from patent publication CN117603358A (INST MICROBIOLOGY CAS; 3SBIO GROUP; SHANXI ADVANCED …, dated 2024).

The assay has as its target S蛋白, SARS-CoV-2原型毒株 (SARS-CoV-2 (prototype), UniProt P0DTC2 14-1273). The assay can be described thus: cell-based or functional assay.

B1: L4.65单抗 (antibody, V domains shown)
VH: QITLKESGPTLVKPTQTLTLTCTFSGFSLSTSGVGVAWIRQPPGKALEWLALIYWDNDKRSSPSLNNRLTITKDTSKNQVVLTMTNMDPEDTATYYCAHFFSHYDSSNYYYGSWFDPWGQGTLVTVSS
VL: EIVLTQSPGTLSLSPGERATLSCRASQSFDSRYLGWYQQKSGQAPRLLIYGASSRATGIPDRFSGSGSGTDFTLTISRLEPEDFAVYYCQQFGDSPFTFGQGTKLEIKR
As for B1, the “假病毒中和效果 IC50” value worked out at 0.000709 µg/mL.

B2: CoV56单抗 (antibody, V domains shown)
VH: EVQLVESGGGVVQPGGSLRLSCAVSGFTFDDYAMHWVRQAPGKGLDWVSLISGDGSYTYYADSVKGRFTISRDSSKNSLYLQMNSLRTEDTALYYCAKAQTPTLWWLQDAFDIWGQGTMVTVSS
VL: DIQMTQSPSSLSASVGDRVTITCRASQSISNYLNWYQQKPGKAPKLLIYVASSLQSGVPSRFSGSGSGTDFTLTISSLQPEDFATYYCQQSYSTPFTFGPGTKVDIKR
With B2, the “假病毒中和效果 IC50” value came to 8.38 µg/mL.
